Data taken from patent US20220056125A1 (CEPHALON, published 2022).

Experiments:
recombinant human PAR-2 = molecular target: T1, recombinant human PAR-2 (human, UniProt P55085 37-397, limits assumed); assay: SPR, antibody captured on Protein A chip, recombinant PAR-2 injected
T1 construct: detergent-solubilised preparation used in SPR; also called recombinant PAR-2
T1 sequence: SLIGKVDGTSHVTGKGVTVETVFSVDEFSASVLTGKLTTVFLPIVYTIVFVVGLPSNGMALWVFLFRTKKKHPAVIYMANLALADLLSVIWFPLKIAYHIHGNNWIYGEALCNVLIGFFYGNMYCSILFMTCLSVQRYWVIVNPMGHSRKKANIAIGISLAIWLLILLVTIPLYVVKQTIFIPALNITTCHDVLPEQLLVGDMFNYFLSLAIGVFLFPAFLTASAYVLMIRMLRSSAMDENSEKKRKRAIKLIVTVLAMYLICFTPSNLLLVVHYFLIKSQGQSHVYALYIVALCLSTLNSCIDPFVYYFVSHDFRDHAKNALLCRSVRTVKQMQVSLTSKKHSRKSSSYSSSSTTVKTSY
Protocol: (§1) Selected antibodies were tested for binding to various species of PAR-2 using surface plasmon resonance (SPR) assay for antibody binding to recombinant PAR-2, except that human PAR-2 was substituted with PAR-2 from cynomolgus monkeys, rat, or mice.
(§2) Antibodies were transfected and harvested as described in Example 3, supra. Antibodies in supernatant were diluted 1 in 50-250 in running buffer (50 mM HEPES, 250 mM NaCl, 0.1% w/v LMNG, 0.025% w/v CHAPS, 0.005% CHS, pH 7.4) and purified antibodies were diluted to 0.5 ug/mL in running buffer A Series S Protein A chip was docked into the instrument (Biacore S20) and the system was primed four times with running buffer prior to the run. Recombinant human PAR-2 was diluted to 0-5 μg/mL in running buffer. The surface was regenerated using 50 mM NaOH. The antibody was captured to between 20 to 110 Relative Units on the chip surface. The sample (recombinant PAR-2) was injected for 1 min at 30 μl/min, followed by dissociation phase of 180s. Sensorgrams were double referenced by buffer subtraction and by reference cell subtraction. Binding curves were then fit to a 1:1 binding model with kinetic constants derived from curve fits. Antibodies were ranked by dissociation rate (kd) when only one concentration of antigen was injected. Antibodies were ranked by their equilibrium dissociation constant (KD) when multiple concentrations of PAR-2 were injected. […]

[1] = molecular target: T2, recombinant cynomolgus monkey PAR-2 (cynomolgus monkey); assay: as above
T2 construct: also called cynomolgus PAR-2
Protocol: as §1, §2

human PAR-2 [2] = molecular target: T3, human PAR-2 (human, UniProt P55085 26-397); assay: cell-based or functional assay
T3 sequence: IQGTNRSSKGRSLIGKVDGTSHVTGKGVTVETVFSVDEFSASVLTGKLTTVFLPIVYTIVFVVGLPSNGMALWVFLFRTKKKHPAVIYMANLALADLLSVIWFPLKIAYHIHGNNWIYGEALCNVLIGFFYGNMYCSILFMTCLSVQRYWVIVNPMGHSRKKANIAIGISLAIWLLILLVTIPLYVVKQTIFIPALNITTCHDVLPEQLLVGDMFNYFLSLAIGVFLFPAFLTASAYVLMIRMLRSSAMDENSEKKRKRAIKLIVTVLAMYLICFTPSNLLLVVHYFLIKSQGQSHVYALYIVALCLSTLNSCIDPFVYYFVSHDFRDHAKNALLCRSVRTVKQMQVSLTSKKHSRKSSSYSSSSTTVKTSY

human PAR-2 [3] = molecular target: T3, human PAR-2; assay: cell-based or functional assay; remark: listed apart in the source
rat PAR-2 on cells = molecular target: T4, rat PAR-2 on cells (rat, UniProt Q63645 26-397); assay: flow cytometry, transiently transfected CHEM-1 cells
T4 construct: transiently transfected CHEM-1 cells
T4 sequence: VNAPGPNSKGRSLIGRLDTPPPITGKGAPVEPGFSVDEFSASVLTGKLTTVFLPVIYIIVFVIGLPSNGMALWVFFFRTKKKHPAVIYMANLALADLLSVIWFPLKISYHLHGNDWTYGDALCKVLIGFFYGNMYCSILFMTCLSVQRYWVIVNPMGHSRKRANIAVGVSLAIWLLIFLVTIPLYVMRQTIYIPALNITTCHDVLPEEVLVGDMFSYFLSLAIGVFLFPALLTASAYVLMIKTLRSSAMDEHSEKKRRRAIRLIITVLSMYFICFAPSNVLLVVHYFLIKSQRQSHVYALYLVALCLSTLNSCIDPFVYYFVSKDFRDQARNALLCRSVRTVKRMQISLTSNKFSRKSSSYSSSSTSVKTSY
Protocol: The cells were plated in 96 well plates at 2×10⁵ cells/well. Following a wash step using Phosphate buffered saline (PBS), the primary antibody (anti-PAR-2 antibody) was added at a concentration of 10 μg/mL in 50 μL of FACS buffer (0.5% w/v BSA in PBS) to each well and incubated for 10-15 mins. Following a wash step, secondary antibody (anti-human Fc-FITC) was added to the wells at 1:200 dilution in 50 μL for 10-15 mins. Following a washing step, the cells were re-suspended in fluorescence-activated cell sorting (FACS) buffer. The flow cytometry analysis was performed on an Intellicyt iQue screener. Gates were drawn around the different intensities of encoder dye-positive cells and these populations were analyzed separately from each other and the unlabeled cells for binding by the primary antibody.
P24E1102 binding was also assessed by flow cytometry, as described in Example 1 supra, using PAR-2 transiently transfected into CHEM-1 cells. In addition to human, cynomolgus, mouse and rat, guinea pig, rabbit and dog PAR-2 were also tested. P24E1102 bound well to human and cynomolgus PAR-2 but minimally to all other species tested.

human PAR-2 [4] = molecular target: T3, human PAR-2; assay: cell-based or functional assay; remark: listed apart in the source
human PAR-2 [5] = molecular target: T3, human PAR-2; assay: cell-based or functional assay; remark: listed apart in the source

T2 sequence (Q863Y8 other isoform, or with tags, fused parts or gaps): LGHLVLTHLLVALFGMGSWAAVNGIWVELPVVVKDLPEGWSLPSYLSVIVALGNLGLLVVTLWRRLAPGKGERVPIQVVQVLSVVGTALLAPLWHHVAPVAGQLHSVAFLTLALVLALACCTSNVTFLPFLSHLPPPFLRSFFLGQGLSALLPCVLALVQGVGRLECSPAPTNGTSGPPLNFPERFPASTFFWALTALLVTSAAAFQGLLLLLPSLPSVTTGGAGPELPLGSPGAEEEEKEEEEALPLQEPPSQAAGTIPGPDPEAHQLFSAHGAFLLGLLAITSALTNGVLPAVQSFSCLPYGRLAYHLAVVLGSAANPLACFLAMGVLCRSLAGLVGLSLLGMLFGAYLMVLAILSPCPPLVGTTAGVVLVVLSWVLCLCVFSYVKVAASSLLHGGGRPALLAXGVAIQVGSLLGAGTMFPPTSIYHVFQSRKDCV

B1: P24E1102 (antibody, human IgG4 S228P, kappa, V domains shown)
VH: QVQLVQSGAEVKKPGSSVKVSCKASGFSLSSYAISWVRQAPGQGLEWMGVIWGNQNVYYAQKFQGRVTITADESTSTAYMELSSLRSEDTAVYYCARWKGYKDYPFDYWGQGTLVTVSS
VL: EIVLTQSPATLSLSPGERATLSCRASQNVYKWLDWYQQKPGQAPRLLIYNANTRATGIPARFSGSGSGRDFTLTISSLEPEDFAVYYCQQHHSGWTFGGGTKVEIKR
notes: human IgG4 S228P K447del / kappa; also called Anti-PAR-2 (P24E1102); TEV-56192 P24E1102
- Kd (recombinant human PAR-2): 0.433 to 0.946 nM
- Kd [1]: 4.45 nM
- IC50, PAR-2 activating ligand-induced calcium flux in A549 cells (human PAR-2 [2]): 13.2 nM
- PAR-2 β-arrestin cell based assay IC50, 2 µM SLIGKV (human PAR-2 [3]): 1.4 nM
- binding result (rat PAR-2 on cells): binds
- Calcium flux IC50 (human PAR-2 [4]): 17.4 nM
- IL-6 release in A549 cells IC50 (human PAR-2 [4]): 5 nM
- IL-8 release in A549 cells IC50 (human PAR-2 [4]): 4.62 nM
- IC50 mean, calcium flux at SLIGKV EC80, Nomad line (human PAR-2 [5]): 2.07 nM
- IC50 mean, β-arrestin at SLIGKV EC80, Nomad line (human PAR-2 [5]): 5.38 nM
